Data published in US20230312741A1 (published 2023).

Assays:
human CD73 antigen [1] = target: T1, human CD73 antigen (human, UniProt P21589 27-547); assay: ForteBio BLI; IgG on AHQ sensor, 100 nM antigen; bivalent; 1:1 model
T1 construct: also called Biotinylated Human CD73
T1 sequence (looked up): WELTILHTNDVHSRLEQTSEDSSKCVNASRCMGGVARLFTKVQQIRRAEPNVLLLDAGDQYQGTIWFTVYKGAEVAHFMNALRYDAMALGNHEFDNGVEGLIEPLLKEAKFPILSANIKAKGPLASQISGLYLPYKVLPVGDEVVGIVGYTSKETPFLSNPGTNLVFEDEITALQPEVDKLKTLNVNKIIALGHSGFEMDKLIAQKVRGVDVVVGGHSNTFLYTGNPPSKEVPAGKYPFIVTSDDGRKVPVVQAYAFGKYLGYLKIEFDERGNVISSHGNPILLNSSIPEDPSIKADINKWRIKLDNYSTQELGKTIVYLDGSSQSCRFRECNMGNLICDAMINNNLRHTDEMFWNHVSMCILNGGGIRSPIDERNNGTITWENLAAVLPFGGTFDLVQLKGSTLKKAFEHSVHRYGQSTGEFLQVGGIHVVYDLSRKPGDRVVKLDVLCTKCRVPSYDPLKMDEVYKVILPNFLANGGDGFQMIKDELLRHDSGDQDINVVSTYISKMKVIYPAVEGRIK
Experimental: (§1) Briefly, the sensor was equilibrated off-line in assay buffer for 30 min, then on-line detection was carried out for 60 sec to establish a baseline. The purified antibody obtained as described above was loaded on-line to the AHQ sensor (ForteBio) for ForteBio affinity determination. The sensor loaded with the antibody was then exposed to 100 nM of human or cynomolgus monkey antigen for 5 minutes, after which the sensor was transferred to assay buffer for dissociation for 5 minutes to determine the dissociation rate. Kinetic analysis was performed by using a 1:1 binding model.

[2] = target: T2, human CD73 expressed on the cell surface (human, UniProt P21589 27-549); assay: cell-based or functional assay
T2 sequence: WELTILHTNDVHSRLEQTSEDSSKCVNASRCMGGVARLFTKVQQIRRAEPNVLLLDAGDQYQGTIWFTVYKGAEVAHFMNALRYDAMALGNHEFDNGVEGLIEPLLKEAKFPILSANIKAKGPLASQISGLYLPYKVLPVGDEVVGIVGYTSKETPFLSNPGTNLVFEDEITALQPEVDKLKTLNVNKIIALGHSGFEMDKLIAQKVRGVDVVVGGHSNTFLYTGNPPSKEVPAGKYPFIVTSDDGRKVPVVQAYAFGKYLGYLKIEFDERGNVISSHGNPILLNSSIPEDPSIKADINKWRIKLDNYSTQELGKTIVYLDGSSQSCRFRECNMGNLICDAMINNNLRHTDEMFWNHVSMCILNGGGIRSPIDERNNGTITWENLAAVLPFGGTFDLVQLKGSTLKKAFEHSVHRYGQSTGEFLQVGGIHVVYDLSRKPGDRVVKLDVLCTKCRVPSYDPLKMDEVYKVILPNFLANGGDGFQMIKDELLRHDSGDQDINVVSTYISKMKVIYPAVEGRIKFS

[3] = target: T3, cynomolgus monkey CD73 antigen (cynomolgus monkey, UniProt A0A2K5V5U7 27-547); assay: ForteBio BLI; antigen on sensor, 100 nM scFv; monovalent; 1:1 model
T3 construct: also called Biotinylated cynomolgus monkey CD73
T3 sequence: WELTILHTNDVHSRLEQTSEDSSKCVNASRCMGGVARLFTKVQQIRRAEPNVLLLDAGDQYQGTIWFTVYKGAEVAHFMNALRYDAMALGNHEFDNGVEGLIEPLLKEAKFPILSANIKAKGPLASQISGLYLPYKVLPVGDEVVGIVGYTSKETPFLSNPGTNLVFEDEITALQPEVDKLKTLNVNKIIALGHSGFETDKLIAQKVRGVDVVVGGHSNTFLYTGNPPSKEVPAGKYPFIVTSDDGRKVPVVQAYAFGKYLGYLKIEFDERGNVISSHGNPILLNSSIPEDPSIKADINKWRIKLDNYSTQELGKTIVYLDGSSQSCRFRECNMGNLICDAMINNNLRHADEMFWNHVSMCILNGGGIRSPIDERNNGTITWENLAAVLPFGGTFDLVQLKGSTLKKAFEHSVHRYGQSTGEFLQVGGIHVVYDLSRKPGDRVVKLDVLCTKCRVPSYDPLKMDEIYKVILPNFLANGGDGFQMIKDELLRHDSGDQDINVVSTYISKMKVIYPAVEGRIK
Experimental: (§2) Human or cynomolgus monkey CD73 antigen protein was loaded on-line to the AHQ sensor (ForteBio) for ForteBio affinity measurement. […] Kinetic analysis was performed by using a 1:1 binding model.

human CD73 antigen [4] = target: T1, human CD73 antigen; assay: as above
Experimental: as §2

[5] = target: T3, cynomolgus monkey CD73 antigen; assay: ForteBio BLI; IgG on AHQ sensor, 100 nM antigen; bivalent; 1:1 model
Experimental: as §1

[6] = target: T2, human CD73 expressed on the cell surface; assay: cell-based or functional assay; remark: listed apart in the source

B1: ADI-34104 (antibody, human IgG4 S228P, kappa, F234A L235A, V domains shown)
VH: QVQLQESGPGLVKPSETLSLTCAVSGYSISSGYYWGWIRQPPGKGLEWIGSIYHSGSTYYNPSLKSRVTISVDTSKNQFSLKLSSVTAADTAVYYCARASIYTPPPEYFQHWGQGTLVTVSS
VL: DIQMTQSPSTLSASVGDRVTITCRASQSISSWLAWYQQKPGKAPKLLIYDASSLESGVPSRFSGSGSGTEFTLTISSLQPDDFATYYCQQSRIYSTFGGGTKVEIKR
notes: Parental antibody
Kd (human CD73 antigen [1]): 0.847 nM
CD73 enzymatic activity assay IC50 (Calu-6 cells, CellTiter-Glo) [2]: 0.142 µg/mL

B2: scfv fragment of ADI-37542 (scFv, V domains shown)
VH: QVQLQESGPGLVKPSETLSLTCAVSGYSISEGYYWGWIRQPPGKGLEWIGSIYHTGFTYYNPSLKSRVTISVDTSKNQFSLKLSSVTAADTAVYYCARASIYTPPPEYFQHWGQGTLVTVSS
VL: DIQMTQSPSTLSASVGDRVTITCRASQSISSWLAWYQQKPGKAPKLLIYDASSLESGVPSRFSGSGSGTEFTLTISSLQPDDFATYYCQQSRIYSTFGGGTKVEIK
Kd [3]: 5.47 nM
Kd (human CD73 antigen [4]): 6.04 nM

B3: scfv fragment of ADI-37543 (scFv, V domains shown)
VH: QVQLQESGPGLVKPSETLSLTCAVSGYSISSGYYWAWIRQPPGKGLEWIGSIFHSGFTFYNPSLKSRVTISVDTSKNQFSLKLSSVTAADTAVYYCARASIYTPPPEYFQHWGQGTLVTVSS
VL: DIQMTQSPSTLSASVGDRVTITCRASQSISSWLAWYQQKPGKAPKLLIYDASSLESGVPSRFSGSGSGTEFTLTISSLQPDDFATYYCQQSRIYSTFGGGTKVEIK
Kd [3]: 2.99 nM
Kd (human CD73 antigen [4]): 3.85 nM

B4: ADI-34071 (antibody, human IgG4 S228P, kappa, F234A L235A, V domains shown)
VH: EVQLVESGGGLVQPGRSLRLSCAASGFTFDDYAMHWVRQAPGKGLEWVSGISWSSGSIGYADSVKGRFTISRDNAKNSLYLQMNSLRAEDTAVYYCAKDRRYGLTYGMDVWGQGTTVTVSS
VL: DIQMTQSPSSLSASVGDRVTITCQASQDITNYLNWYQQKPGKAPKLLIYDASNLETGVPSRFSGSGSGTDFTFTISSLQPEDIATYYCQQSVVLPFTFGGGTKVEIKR
notes: Parental antibody from the yeast library
Kd [5]: 1.34 nM
Kd (human CD73 antigen [1]): 0.892 nM
CD73 enzymatic activity assay IC50 (Calu-6 cells, CellTiter-Glo) [2]: 0.171 µg/mL

B5: ADI-34086 (antibody, human IgG4 S228P, kappa, F234A L235A, V domains shown)
VH: EVQLLESGGGLVQPGGSLRLSCAASGFTFSNYAMSWVRQAPGKGLEWVSAISGSGGSTYYADSVKGRFTISRDNSKNTLYLQMNSLRAEDTAVYYCARGGPYGSGSYWDTFDYWGQGTLVTVSS
VL: EIVMTQSPATLSVSPGERATLSCRASQSVSSNLAWYQQKPGQAPRLLIYGASTRATGIPARFSGSGSGTEFTLTISSLQSEDFAVYYCQQYTNHYTFGGGTKVEIKR
notes: Parental antibody
Kd [5]: 1.9 nM
Kd (human CD73 antigen [1]): 1.23 nM
CD73 enzymatic activity assay IC50 (Calu-6 cells, CellTiter-Glo) [2]: 0.089 µg/mL

B6: ADI-34095 (antibody, human IgG4 S228P, kappa, F234A L235A, V domains shown)
VH: QVQLVESGGGVVQPGRSLRLSCAASGFTFSSYGMHWVRQAPGKGLEWVAVISYEGSNKYYADSVKGRFTISRDNSKNTLYLQMNSLRAEDTAVYYCARGGARYPIAFDIWGQGTMVTVSS
VL: DIQLTQSPSSVSASVGDRVTITCRASQDISSWLAWYQQKPGKAPKLLIYAASSLQSGVPSRFSGSGSGTDFTLTISSLQPEDFATYYCQQANDFPITFGGGTKVEIKR
CD73 enzymatic activity assay IC50 (Calu-6 cells, CellTiter-Glo) [2]: 0.279 µg/mL

B7: ADI-34074 (antibody, human IgG4 S228P, kappa, F234A L235A, V domains shown)
VH: EVQLVESGGGLVQPGRSLRLSCAASGFTFDDYAMHWVRQAPGKGLEWVSGISWSSGSIGYADSVKGRFTISRDNAKNSLYLQMNSLRAEDTAVYYCAKGKYLPTGSVDYWGQGTLVTVSS
VL: EIVLTQSPGTLSLSPGERATLSCRASQSVSSSYLAWYQQKPGQAPRLLIYGASSRATGIPDRFSGSGSGTDFTLTISRLEPEDFAVYYCQQYYDYPPITFGGGTKVEIKR
notes: Parental antibody; also called AD-34074
Kd [5]: 3.13 nM
Kd (human CD73 antigen [1]): 2.12 nM
CD73 enzymatic activity assay IC50 (Calu-6 cells, CellTiter-Glo) [2]: 0.476 µg/mL

B8: ADI-34101 (antibody, human IgG4 S228P, kappa, F234A L235A, V domains shown)
VH: QVQLVESGGGVVQPGRSLRLSCAASGFTFSSYGMHWVRQAPGKGLEWVAVISYEGSNKYYADSVKGRFTISRDNSKNTLYLQMNSLRAEDTAVYYCARSRYDWSLFDIWGQGTMVTVSS
VL: EIVLTQSPGTLSLSPGERATLSCRASQSVSSSYLAWYQQKPGQAPRLLIYGASSRATGIPDRFSGSGSGTDFTLTISRLEPEDFAVYYCQQYVLYPFTFGGGTKVEIKR
notes: Parental antibody
Kd [5]: 1.57 nM
Kd (human CD73 antigen [1]): 1.07 nM
CD73 enzymatic activity assay IC50 (Calu-6 cells, CellTiter-Glo) [2]: 0.153 µg/mL

B9: Oleclumab (antibody, V domains shown)
VH: EVQLLESGGGLVQPGGSLRLSCAASGFTFSSYAYSWVRQAPGKGLEWVSAISGSGGRTYYADSVKGRFTISRDNSKNTLYLQMNSLRAEDTAVYYCARLGYGRVDEWGRGTLVTVSS
VL: QSVLTQPPSASGTPGQRVTISCSGSLSNIGRNPVNWYQQLPGTAPKLLIYLDNLRLSGVPDRFSGSKSGTSASLAISGLQSEDEADYYCATWDDSHPGWTFGGGTKLTVL
Kd [5]: 0.96 nM
Kd (human CD73 antigen [1]): 0.948 nM
IC50 for inhibiting the enzymatic activity of CD73 (Calu-6 cells) [6]: 0.177 µg/mL
CD73 enzymatic activity assay IC50 (Calu-6 cells, CellTiter-Glo) [2]: 0.167 µg/mL
